From article PMC8575462, “PP2A/B55α substrate recruitment as defined by the retinoblastoma-related protein p107” (eLife, 2021)

B1: GST-p107 R1R2 [not stated] / B55α (PP2A regulatory subunit B55α), endogenous in U-2 OS cells [human (endogenous in U-2 OS)] (parent complex)
chain 1: KVPTCEEVIFPNNFETGNGGNVQGHLPLMPMSPLMHPRVKEVRTDSGSLRRDMQPLSPISVHERYSSPTAGSAKRRLF
chain 2: MAGAGGGNDIQWCFSQVKGAVDDDVAEADIISTVEFNHSGELLATGDKGGRVVIFQQEQENKIQSHSRGEYNVYSTFQSHEPEFDYLKSLEIEEKINKIRWLPQKNAAQFLLSTNDKTIKLWKISERDKRPEGYNLKEEDGRYRDPTTVTTLRVPVFRPMDLMVEASPRRIFANAHTYHINSISINSDYETYLSADDLRINLWHLEITDRSFNIVDIKPANMEELTEVITAAEFHPNSCNTFVYSSSKGTIRLCDMRASALCDRHSKLFEEPEDPSNRSFFSEIISSISDVKFSHSGRYMMTRDYLSVKIWDLNMENRPVETYQVHEYLRSKLCSLYENDCIFDKFECCWNGSDSVVMTGSYNNFFRMFDRNTKRDITLEASRENNKPRTVLKPRKVCASGKRKKDEISVDSLDFNKKILHTAWHPKENIIAVATTNNLYIFQDKVN
B2: Myc-B55α wild type [not stated] / Flag-pRB [not stated] (parent complex)
chain 1: B1 chain 2
chain 2: MPPKTPRKTAATAAAAAAEPPAPPPPPPPEEDPEQDSGPEDLPLVRLEFEETEEPDFTALCQKLKIPDHVRERAWLTWEKVSSVDGVLGGYIQKKKELWGICIFIAAVDLDEMSFTFTELQKNIEISVHKFFNLLKEIDTSTKVDNAMSRLLKKYDVLFALFSKLERTCELIYLTQPSSSISTEINSALVLKVSWITFLLAKGEVLQMEDDLVISFQLMLCVLDYFIKLSPPMLLKEPYKTAVIPINGSPRTPRRGQNRSARIAKQLENDTRIIEVLCKEHECNIDEVKNVYFKNFIPFMNSLGLVTSNGLPEVENLSKRYEEIYLKNKDLDARLFLDHDKTLQTDSIDSFETQRTPRKSNLDEEVNVIPPHTPVRTVMNTIQQLMMILNSASDQPSENLISYFNNCTVNPKESILKRVKDIGYIFKEKFAKAVGQGCVEIGSQRYKLGVRLYYRVMESMLKSEEERLSIQNFSKLLNDNIFHMSLLACALEVVMATYSRSTSQNLDSGTDLSFPWILNVLNLKAFDFYKVIESFIKAEGNLTREMIKHLERCEHRIMESLAWLSDSPLFDLIKQSKDREGPTDHLESACPLNLPLQNNHTAADMYLSPVRSPKKKGSTTRVNSTANAETQATSAFQTQKPLKSTSLSLFYKKVYRLAYLRLNTLCERLLSEHPELEHIIWTLFQHTLQNEYELMRDRHLDQIMMCSMYGICKVKNIDLKFKIIVTAYKDLPHAVQETFKRVLIKEEEYDSIIVFYNSVFMQRLKTNILQYASTRPPTLSPIPHIPRSPYKFPSSPLRIPGGNIYISPLKSPYKISEGLPTPTKMTPRSRILVSIGESFGTSEKFQKINQMVCNSDRVLKRSAEGSNPPKPLKKLRFDIEGSDEADGSKHLPGESKFQQKLAEMTSTRTRMQKQKMNDSMDTSNKEEK

Variants of: B1
Assay: GST pull-down, western blot; U2-OS lysates; triplicate; read off a plot

Row | ratio to parent | Variant
1 | ~1 | chain 1 R50A, chain 1 R51A
2 | ~0.05 | chain 1 R38A, chain 1 K40A
3 | ~0.47 | chain 1 R43A

Variants of: B2
Assay: co-immunoprecipitation (anti-Myc IP), western blot quantitation; 293T cells, co-transfected; read off a plot

Row | ratio to parent | Variant
4 | ~0.85 | chain 1 V228A
5 | ~0.55 | chain 1 E347A
6 | ~0.65 | chain 1 K345A
7 | ~0.35 | chain 1 D116A
8 | ~0.5 | chain 1 F280A
9 | ~0.7 | chain 1 T436A
10 | ~-0.2 | chain 1 D197K
11 | ~0.65 | chain 1 K98A
12 | ~1.5 | chain 1 S247A
13 | ~1.1 | chain 1 N181A
14 | ~0.95 | chain 1 K48E
15 | ~1.5 | chain 1 S287A
16 | ~0.2 | chain 1 L225A
17 | ~0.3 | chain 1 E283A
18 | ~0.8 | chain 1 H179A
